Experiment [1] addresses Twin-Strep-tagged wild-type mTORC1 (human) (UniProt P42345). Nature of the experiment: SPR; Biacore T200, CM5 chip; Twin-Strep-tagged mTORC1 captured on Strep-Tactin XT; DEPTOR PDZ (305-409) injected 120 s, 300 s dissociation, 1:2 dilution series from 20 µM; 50 mM HEPES pH 7.5, 100 mM NaCl, 1 mM TCEP; equilibrium responses fit to one-site specific binding with a linear non-specific component. (SPR reads the build-up and loss of mass on a sensor chip optically.)

The target in experiment [2] is Twin-Strep-tagged activated mTORC1 mutant A1459P (human) (UniProt P42345). The description is as above.
Experiment [3] concerns the target mTORC1 (wild-type human mTOR, RAPTOR, mLST8), Strep tag removed (human) (UniProt P42345).
Experiment [4] has the same target. The source holds these as a separate data set.
In experiment [5] the target is mTOR^ΔN-mLST8 complex (human) (UniProt P42345).
Experiment [6] has as its target mTORC1 (wild-type human mTOR, RAPTOR, mLST8), Strep tag removed (human) (UniProt P42345). The source holds these as a separate data set.

In the case of “DEPTOR short-linker PDZ, residues 305-409 (from UniProt Q8TB45 305-409) (domain or fragment)”, the Kd stood at 7 µM in experiment [1] and 0.6 µM in experiment [2].
For “DEPTOR (DEP-domain containing mTOR-interacting protein), full length, residues 1-409 (from UniProt Q8TB45 1-409) (natural protein)”, in experiment [3], the IC50 of inhibition of mTORC1 phosphorylation of the TOS-less 4EBP1 mutant, against wild-type 4EBP1 was determined as 2 fold. In experiment [4], the fold decrease of the IC50 of DEPTOR inhibition of 4EBP1 phosphorylation in the presence of RHEB-GTP, against mTORC1 alone was found to be 400 fold. In addition, in experiment [5], the IC50 of inhibition of the kinase activity of monomeric mTOR^ΔN-mLST8 was determined as 0.4 µM. In experiment [6], this substance had an IC50 of inhibition of mTORC1 kinase activity, phosphorylation of GST-S6K1 367-404 peptide (western blot, p-S6K1 Thr389) of 51 µM and an IC50 of inhibition of mTORC1 kinase activity, phosphorylation of wild-type 4EBP1 (western blot, p-4EBP1 Thr37/46) of 14 µM.

What is called Kd is the concentration at which binding is half-saturated.

(Values after publication PMC8439657.)
